Reference: the supplement of paper PMC9170038

System: MS2 coat protein
Test: apparent KD of MS2 coat protein; higher = weaker reporter binding
Conditions: Eterna round: R107
In short: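 With or without constant ligand, designed RNA switches in 100 mM Tris-HCl pH 7.5, 80 mM KCl and 4 mM MgCl2 were titrated with SNAP-549-labelled MS2 coat protein. Concentrations went up in twofold steps from 0.7 or 1.5 nM to 3 µM. The switches had been transcribed on-chip from Illumina sequencing clusters, and apparent KD is the per-design median of normalised cluster binding-curve fits.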

[1] = input ligand: theophylline 20 uM
[2] = input ligand: theophylline 2 mM
[3] = input ligand: tryptophan 2.4 mM

| Sequence | apparent KD of MS2 coat protein (input ligand: arginine 13.2 mM) [nM] | apparent KD of MS2 coat protein [1] [nM] | apparent KD of MS2 coat protein [2] [nM] | apparent KD of MS2 coat protein (input ligand: none) [nM] | apparent KD of MS2 coat protein [3] [nM] |
| --- | --- | --- | --- | --- | --- |
| UCAAUACAGUCGGCCGCCACUGUAACCAAACCUACAUACCAACAUGAGGAUCACCCAUGUUUAUACAGGACCGGGACCUCUAUGA [theeternabot_sameState_MS2_Trp_B_10] | 32.6 | 45.8 | 46.4 | – | – |
| UCACAUGAGGAUCACCCAUGUGUCAGAGAAGGAGCGGCCGCAAGGCCAGGUAGGUCGCUCGGGUAUGGUGAGGUUCACCCGUGUG [#1 Exclusion - Arginine A Attempt #13 (Inspired by cyborg)] | 28.3 | 73 | 57 | 47.3 | 56.7 |
| UCACGGCACUGAAGGAGCGAGUUGACAAACAUGAGGAUCACCCAUGUUAUGGGUUGUUAAUCUCAGGUAGGUCGCAGUUGUCGUG [Same State Arginine B GF 21] | 163 | 418 | 458 | 379 | 388 |
| UCCUCAUGGCAUGAUACCAGACCUAACAUGAGGAUCACCCAUGUAUCAGGCAAUUGUUACGUCCCUUGGCAGCAUGUAUGCCGAC [Theo B SS t4] | 33.6 | 91.1 | – | – | 60.8 |
| UCCUGCAGAGCGGCCGCCACUGUAUUGCGUGAGGAUGACCCAACAUGAGGAUCACCCAUGUUGUUUAGGACCGGGCUUGCCACGA [opmullin%] | 13.7 | 21.2 | 15 | – | – |
| UCGACAGUGAACGAUACCAGCGUCACGUGGCCGGUGGUCACAUGAGGAUCACCCAUGUAACGCCCUUGGCAGCGUGCACGUAUCC [Berisoor] | 17.5 | 78 | – | – | 25.5 |
| UCGCAUUGCUCAGAUACCAGACAUGAGGAUCACCCAUGUACCAAGGUACCCGAAAGGAAUGUCCCUUGGCAGCUGAGCAAUGCGU [MAT - Exclusion Theophlline B - Mod of Eli - D19] | 10.5 | 14 | – | – | 10.4 |
| UCGCCCGGGUCGGCCGCCACUGAGGUGAUGUGACAUGAGGAUCACCCAUGUUGUCAUGUGGCACAUAGGACCGGGACCCGGGCGA [Exclusion - Tryptophan B Attempt #3 (HarryS)] | 16.4 | 41 | 16.8 | 26.3 | 22.5 |
| UCGCUCGCCGUAAGGCGAGCGAGUUGCGAUACCAGCCCGGAAACGGGCCCUUGGCAGCGCACAUGAGGAUCACCCAUGUCAUGUU [#1 Exclusion - Theophylline A Attempt #5 (HarryS)] | 18.3 | 35.1 | 24.3 | 19.5 | 19.7 |
| UCGUGUGUUUCGGAUACCAGUGAAAUCGAUACAUGAGGAUCACCCAUGUGAGAGGAUGUACACCCUUGGCAGCUGGCUGUUGCGG [zezmullin] | 24 | 36.2 | – | – | 34.2 |
| UCUUACUUGGUAGAUACCAGCGUGUUAUCUUUCUUUUGACAUGAGGAUCACCCAUGUAUAUGCCCUUGGCAGCUGCAUAGUGUGU [#02 Same State - Theophylline B] | 26.9 | 41.7 | – | – | 30.1 |
| UCUUACUUGGUAGAUACCAGCGUGUUAUCUUUCUUUUGACAUGAGGAUCACCCAUGUAUAUGCCCUUGGCAGCUGCGUAGUGUGU [#03 Same State - Theophylline B] | 21.6 | 35.7 | – | – | 27.4 |
| UCUUUUUUCUUUUCUUCUUUCGGUUCUUUUCGAGGACCGGUACGGCCGCCACUCGAAACAUGAGGAUCACCCAUGUUUUGGUUUU [Trypto a] | 15.9 | 17.6 | 13.7 | – | – |
| UGACAUUGCUCAGAUACCAGACAUGAGGAUCACCCAUGUACCAAGAAAACGUACAAUAAUGUCCCUUGGCAGCUGAGCAAUGUCU [TheoBX 9 #MS2Left #Theo2] | 64.8 | 180 | – | – | 93.6 |
| UGACAUUGCUCAGAUACCAGACAUGAGGAUCACCCAUGUACCAAGAAAGUACAAUAAAAUGUCCCUUGGCAGCUGAGCAAUGUCU [TheoBX 8 #MS2Left #Theo2] | 61.2 | 137 | – | – | 66.9 |
| UGACAUUGCUGCGAUACCAGACAUGAGGAUCACCCAUGUGCCAAAUAAACGUACAUAAAUGUCCCUUGGCAGCGCAGCAAUGUCU [MAT - Exclusion Theophlline B - Mod of Eli - D29] | 44.9 | 112 | – | – | 61 |
| UGAUGGUACGGAAGGAGCGUGUAAGAACAAGAACAUGAGGAUCACCCAUGUAUUAAUUUAACACAGGUAGGUCGCCGAGUUAUUG [11.G] | 17.8 | 26.7 | 23.2 | 17.3 | 16.5 |
| UGCAAAUGAUGAGAUACCAGUUCAGUUAAAUACAUGAGGAUCACCCAUGUCAGGGAACUCAACCCUUGGCAGCUCGAUGCACUCA [theeternabot_sameState_MS2_Theo_B_43] | 48 | 56.7 | – | – | 59 |
| UGCCCUGCGAGCGCUCGCAGGGCAGCGGAUACCAGCGAGGUCCAUCGCCCUUGGCAGCCGAACAUGAGGAUCACCCAUGUCGGUG [Same State - Theophylline A Attempt #9 (HarryS)] | 11.4 | 18.9 | 144 | 14.1 | 13.2 |

| Sequence | apparent KD of MS2 coat protein (input ligand: arginine 13.2 mM) [nM] | apparent KD of MS2 coat protein [1] [nM] | apparent KD of MS2 coat protein [2] [nM] | apparent KD of MS2 coat protein (input ligand: none) [nM] | apparent KD of MS2 coat protein [3] [nM] |
| --- | --- | --- | --- | --- | --- |
| UGCUAGUGAUCGGCCGCCACUGGCACCUUGAGGAUCCUGCUAAAGUACAUGAGGAUCACCCAUGUCAGGACCGGGAUCAUCAGUG [Onveusonri] | 9.02 | 11.8 | 10.8 | – | – |
| UGGCGAGAAGGAAGGAGCGUCAGCUGAGUUACAUGAGGAUCACCCAUGUUUUACAUUGUGUGACAGGUAGGUCGCCUUCUGCCCU [SS-ArgB20] | 15.7 | 18.8 | 16.9 | 14 | 13.5 |
| UGGGUACAUGAGGAUCACCCAUGUACUGAAGGAGCGGGACGAAUCUCAGGUAGGUCGCAGACAUGAGGAUCACCCAUGUAGUGGA [Exclusion Arginine A GF 15] | 13.9 | 17.8 | 17.2 | 15.9 | 14.6 |
| UGGGUAGCAUAGAUUGAUAGUUAAACUGAAGGAGCGAGAAUAAUCUCAGGUAGGUCGCAGACAUGAGGAUCACCCAUGUAGAUGG [Same State Arginine A GF16] | 47 | 129 | 88.8 | 122 | 68 |
| UGGGUCGGAUGAGUAAAUUGUCCGACGUAUCGAGGACCGGUACGGCCGCCACUCGGUUGUACAUGAGGAUCACCCAUGUCAGGGU [#1 Same State - Tryptophan A Attempt #16 (HarryS)] | 40.5 | 351 | 536 | 436 | 206 |
| UGGGUCGGAUGAGUAAAUUGUCGGACUCAUCGAGGACCGGUACGGCCGCCACUCGGUUGUACAUGAGGAUCACCCAUGUCAGGGU [#1 Same State - Tryptophan A Attempt #17 (HarryS)] | 47.4 | 336 | 749 | – | – |
| UGGUACAUGAGGAUCACCCAUGUCCUCAUCCGAGGACCGGUACGGCCGCCACUCGAAAUUGCGAUCGGCACAAAACAAAUGCUUG [theeternabot_sameState_MS2_Trp_A_39] | 87.8 | 205 | 179 | – | – |
| UGGUACAUGAGGAUCACCCAUGUUCCAGAUACCAGUGUCCCGCUGCACCCUUGGCAGCUGGUGGUACAUGAGGAUCACCCAUGUG [Exclusion Theophylline A GF11] | 24.3 | 42.7 | 56.4 | 34.1 | 39 |
| UGGUAUGUAGGAAGGAGCGCAUACUUCACAUGAGGAUCACCCAUGUCAAGACGUGAGUCAGUGCAGGUAGGUCGCCUAGUUAUGA [Same State - Arginine B (Freestyle 21)] | 31.2 | 49.1 | 36.1 | 42.9 | 33.7 |
| UGUAACAUGAGGAUCACCCAUGUGAGUGAUACCAGACUAGUGUUGGUCCCUUGGCAGCACGCUGGGCGAGUGUGUAGUCUAUGCG [Same State - Theophylline A (Freestyle 17)] | 64.5 | 100 | – | – | 80.5 |
| UGUAACAUGAGGAUCACCCAUGUGAGUGAUACCAGAUAAGUAGUAGUCCCUUGGCAGCAUAUUGGGCGAGUGUAUAGUCUAUGCG [Same State - Theophylline A (Freestyle 9)] | 125 | 207 | – | – | 152 |
| UGUAGUACCAGACAUGAGGAUCACCCAUGUCGAGGACCGGUACGGCCGCCACUCGGCAGUUUGCGUCCUCAGGUACUCCGGGUAA [Dianreti] | 14.4 | 18.5 | 14.9 | – | – |
| UGUAUGGAAACAUGAGGAUCACCCAUGUGGCGAGGACCGGUACGGCCGCCACUCGAGCAGCAAGCGUGUAUGACGCUGCUGCAUG [SS-trypA-0] | 27.3 | 60.6 | 49.7 | 40.9 | 25.1 |
| UGUAUGGACUGAAGGAGCGCCUCAAAAUAACUUGAGGAUCACCCAAGUAAGGCGAAAGCCGGGCAGGUAGGUCGCAGUCCAUACU [ArgBX 3] | 24.1 | 28.1 | 15.2 | 10.6 | 12.4 |
| UGUAUGGACUGAAGGAGCGGGUUGAUAACCUGAGGAUCAUCCAGGUAAAAGGCGAAAGCCACCCAGGUAGGUCGCAGUCCAUACU | 199 | 344 | 433 | – | 322 |
| UGUAUGUGAUCUGAUACCAGAGUGACGCGAAAGCGAUAACCUGAGGAUCACCCUGGUAAACUCCCUUGGCAGCAGAUCGCAUACU | 53.7 | 60.2 | 24 | 75.3 | 79.7 |
| UGUAUGUGAUCUGAUACCAGUCCAACUGGUAAAACUUGAGGAUCACCCAAGUAAAAUUGGGACCCUUGGCAGCAGAUCGCAUACU | 126 | 360 | 81.7 | 371 | 371 |
| UGUCAGCGAAAGUUGACAUGUCUUACCGGUCGAGGACCGGUACGGCCGCCACUCGAUCUCUCGCACAUGAGGAUCACCCAUGUCG [SS Tryp A #17] | 12.8 | 15.4 | 12.8 | – | – |
